One assay concerns ryegrass plants. In words: Root biomass analysis of grass transformants. It is filed as in vivo. The conditions noted are these: root growth beyond the grow bag, approximately 6 weeks. The protocol: An equal number (typically 4-10) of tillers were taken from WT and ryegrass plants transformed with Arabidopsis PPD under one of three root promoters. Tillers were planted into plastic grow bags containing potting mix and pruned to be of equal height. […] The increase in root biomass was quantified removing the attached above ground portion (leaves and shoots) and drying the roots at 65° C. for 48 hr then weighing the dry weights (Tables 3 and 4)
An equal number (typically 4-10) of tillers were taken from WT and ryegrass plants transformed with Arabidopsis PPD under a constitutive promoter. Tillers were planted into plastic grow bags containing potting mix and pruned to be of equal height. […] The increase in root biomass was quantified removing the attached above ground portion (leaves and shoots) and drying the roots at 65° C. for 48 hr then weighing the dry weights (Table 5).

The subject of the next assay is Arabidopsis Δppd mutant. In words: Complementation of the Arabidopsis Δppd mutant leaf phenotype. The conditions noted are these: CaMV35s promoter, Arabidopsis thaliana ecotype Landsberg erecta, FIG. 13. The class given is in vivo. The source says: The functionality of any PEAPOD sequence can be confirmed by complementation of the Arabidopsis Δppd mutant leaf phenotype. Complementation of the Arabidopsis Δppd mutant leaf phenotype was first used to identify the Arabidopsis PPD gene (White 2006). This was seen by a restoration of the wild type flattened leaf phenotype and normal rosette shape as opposed to the domed leaf and the twisting of the rosette to a “propeller” phenotype.
Arabidopsis thaliana (L.) Heynh ecotype Ler can be used as wild-type (WT). The Δppd loss of function deletion mutant (with PPD1 and PPD2 deleted) is as previously described in White 2006, PNAS 103, 13238-13243.
Plants are grown in a temperature-controlled glasshouse at a continuous 21° C. or in a controlled environment cabinet at 23° C. in 16-h light_8-h dark cycles.
Constructs above can be transformed into Arabidopsis by the floral dip infiltration method (Clough and Bent, 1998, Plant J 16, 735-43). The Δppd line is transformed to express the PPD polypeptides by standard techniques. Transgenic plants are confirmed by standard PCR analysis techniques with a combination of transgene-specific and T-DNA primers.
Complementation of the Δppd line to produce a wild-type leaf and rosette phenotype in T1 seedlings (the off-spring of the infiltrated plant) confirms PEAPOD functionality of the introduced gene, which can be shown in photographs.

A further assay deals with T1, BZR1 (Arabidopsis thaliana, UniProt Q8S307).
T1 construct: expressed in transfected cells; host or cells: Nicotiana benthamiana leaves (Agrobacterium infiltration)
T1 sequence (Q8S307 1-336): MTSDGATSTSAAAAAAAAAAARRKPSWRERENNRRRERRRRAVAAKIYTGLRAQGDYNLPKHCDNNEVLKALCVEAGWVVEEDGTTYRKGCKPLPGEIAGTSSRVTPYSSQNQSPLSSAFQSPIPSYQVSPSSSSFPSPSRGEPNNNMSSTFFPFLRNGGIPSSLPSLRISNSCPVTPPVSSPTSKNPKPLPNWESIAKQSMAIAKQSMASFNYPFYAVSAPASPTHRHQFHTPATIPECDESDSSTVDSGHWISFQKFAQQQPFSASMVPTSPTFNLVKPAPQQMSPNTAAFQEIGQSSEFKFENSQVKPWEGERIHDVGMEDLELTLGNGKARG
The experiment in a line: BiFC interaction with BZR1 in Nicotiana benthamiana leaves. It is filed as cell-based. The source says:
The binary BiFC-Gateway YFP vectors pDEST-VYNE(R)^GW (Venus aa 1-173) and pDEST-VYCE(R)^GW (Venus aa 156-239) with N-terminal fusions, were used to construct the following vectors; pDESTnYFP-BZR1, pDESTnYFP-NINJA, pDESTnYFP-PPD1, pDESTcYFP-BZR1, pDESTcYFP-PPD1, pDESTcYFP-PPD1Δppd, pDESTcYFP-PPD1Δtify and pDESTcYFP-PPD1Δjas*. For transient in planta expression of proteins interacting with PPD1 or BZR, NINJA and TPL were Gateway® sub-cloned into pRSh1, to construct pRSh1-NINJA and pRSh1-TPL. Plasmids for co-immunoprecipitation: A synthesised DNA construct encoding PPD1 with a 3×c-myc C-terminal fusion was sub-cloned into pRSh1 to produce pRSh1-PPD1-3×c-myc, while the NINJA cDNA sequence was sub-cloned into pB7FWG2,0 (Karimi et al 2002, Trends Plant Sci. 7, 193-195) to construct pB7FWG2-NINJA-GFP. When expressed these constructs produced proteins listed in sequences 60, 62, 70 71 72 73 74 75 76 77 78 79: including TOPLESS (TPL), NINJA, Bimolecular Fluorescence (BiFC) nYFP, BiFC cYFP, BiFC nYFP-NINJA, BiFC nYFP-BZR1, BiFC cYFP-PPD1, BiFC cYFP-NINJA, BiFC cYFP-BZR1, BiFC cYFP-PPD1-ppd, BiFC cYFP-PPD1-tify, BiFC cYFP-PPD1-jas*.
Transient BiFC experiments were performed using combinations of pDESTnYFP and pDESTcYFP plasmids, with or without plasmids for the expression of NINJA (pRSh1-NINJA) or TPL (pRSh1-TPL) and Agrobacterium-infiltration of Nicotiana benthamiana leaves. For infiltration Agrobacterium tumefaciens GV3101 strains containing the binary vectors were re-suspended from plates and prepared for transformation as described for the LUC assay. All YFP and expression strains were mixed in ratios of 1:1 (vol/vol) with the addition of strain P19 at 1/10th volume. Five leaf discs were sampled from each infiltrated leaf after 40 h. Two hours prior to sampling for microscopic fluorescence observations leaves were infiltrated with a 1 μg/ml DAPI solution to stain nuclei. YFP fluorescence and DAPI staining was detected using an Olympus Fluoview FV10i confocal laser scanning microscope. Each experiment was repeated twice.

B1: PPD1: PEAPOD 1 protein of Arabidopsis thaliana, SEQ ID NO: 1 (protein, listed as Arabidopsis thaliana)
chain: MDVGVSPAKSILAKPLKLLTEEDISQLTREDCRKFLKDKGMRRPSWNKSQAIQQVLSLKALYEPGDDSGAGIFRKILVSQPVNPPRVTTTLIEPSNELEACGRVSYPEDNGACHRMDSPRSAEFSGGSGHFVSEKDGHKTTISPRSPAETSELVGQMTIFYSGKVNVYDGIPPEKARSIMHFAANPIDLPENGIFASSRMISKLISKEKMMELPQKGLEKANSSRDSGMEGQANRKVSLQRYREKRKDRKFSKAKKCPGVASSSLEMFLNCQPRMKAAYSQNLGCTGSPLHSQSPESQTKSPNLSVDLNSEGI
Take B1: the “root biomass/growth/length/branching compared to WT plants” value in the assay on ryegrass plants (constitutive promoter) and in the assay on ryegrass plants (root promoter) was “increase in root biomass/growth/length/branching” throughout. Also, the “PEAPOD functionality by complementation of the Δppd deletion mutant” value in the assay with Arabidopsis Δppd mutant is reported as “functionally equivalent”. For the same molecule, the “interaction with BZR1” value with BZR1 (fully expanded leaves, co-expression of NINJA) is “restored”; in the assay with BZR1 (pavement cells of immature Nicotiana benthamiana leaves), “appears to interact with BZR1 in the nucleus”.

Values taken from patent US10487337B2, “Methods for monocot plant improvement” (Agresearch Limited, priority 2014, dated 2019).
